This series deals with the molecule itself. The series can be described thus: nondenaturing 4-20% PAGE and western blot of 1 ug recombinant TbPRMT7-His. For orientation: In western blotting, separated proteins are transferred to a membrane and probed.

These results are taken from US20100047893A1 (RESEARCH FOUNDATION OF STATE UNIVERSITY OF NEW YORK, published 2010).

B1: recombinant TbPRMT7-His (enzyme)
chain: MPPKQHRHQKKDKNDNALQNTIGFVPPGATLASVSGYRPPDAFVNRIDRNIPVPARLRHTPVSLIEAVNDFHYAMMNDEERNNFYYEVLKKHVTPETGVLEIGAGSGLLSLMAAKLGAKWVVAVEGSEELAKLARENIRANNMEHQVKVLHMMSTELKSKHLPEPPDVLLSEIFGTMMLGESALDYVVDVRNRLLKPTTKIIPQFGTQYAVPIECDALHRISSVSGWRDLDLKHMMTLQDTVSIVFAKHYGIRMNSVNFRRLSDPIELFRVDFSSSNRNDIPRRKHFDVVAKESGTAHAMLFYWKVTDDEFVMSTDPEDTVNNFPRDMQWGQALQLLDASNGPLPTPVVFTEGKNYNFECNFSGDRVILHMQLCPESGNGEMTECEGKTT
notes: also called T. brucei PRMT7; Tb927.7.5490; not shown: His tag
B1: the binding result was “binds”.
